# Measurements published in patent US20200362024A1, “BIOLOGICAL MATERIALS AND USES THEREOF” (IMPERIAL INNOVATIONS LIMITED, priority 2009, published 2020).
# B1: FBG: recombinant fibrinogen-like globe, 227 amino acid globular domain at the C terminal of tenascin-C (protein)
# chain: GLLYPFPKDCSQAMLNGDTTSGLYTIYLNGDKAEALEVFCDMTSDGGGWIVFLRRKNGRENFYQNWKAYAAGFGDRREEFWLGLDNLNKITAQGQYELRVDLRDHGETAFAVYDKFSVGDAKTRYKLKVEGYSGTAGDSMAYHNGRSFSTFDKDTDSAITNCALSYKGAFWYRNCHRVNLMGRYGDNNHSQGVNWFHWKGHEHSIQFAEMKLRPSNFRNLEGRRKRA
# How the values were obtained:
# [1] = system: knee joint of TLR2 and TLR4 null mice; experiment: Intra-articular injection of FBG in TLR2 and TLR4 null mice; assay type: in vivo; conditions: 1 μg FBG intra-articular, 3 days
# From the text: Homozygous TLR2 and TLR4 deficient mice on a C57BL/6 background (an inbred strain of mice with a black coat) were obtained from B&K Universal (Hull, UK) Hoshino (1999) and Takeuchi (1999). Homozygous MyD88 deficient mice on a C57BL/6 background were provided by the Sanger Institute (Cambridge, UK). Age matched congenic inbred wild type C57B/L6 mice were obtained from Charles River (Margate, UK). For isolation of mouse embryo fibroblasts one female aged 8-10 weeks was mated with two males aged 8-10 weeks. For isolation of bone marrow derived macrophages mice were female and between 10-12 weeks of age at the time of experimentation.
# (§1) Wild type mice were anesthetized by intraperitoneal injection of 150 μl of Hypnorm diluted 1:10 in sterile water and then injected with 100 ng, 1 or 3 μg FBG in 10 μl of sterile PBS into the right knee joint using a sterile 33-gauge microcannula. Control mice received an injection of 10 μl PBS alone or were not injected.
# (§2) On days 3 and 7, mice were euthanized, the knee joints were excised and fixed in 10% (volume/volume) buffered formalin, decalcified, with 10% EDTA and processed to paraffin.
# Coronal tissue sections (4 μm) were cut at 7 depths throughout the joint; 80 μm apart and stained with hematoxylin and eosin or Safranin-O to assess joint pathology. Histopathologic changes were scored using the following parameters as described in Van Lent (2006). […]
# [2] = system: primary human macrophages; experiment: Cytokine synthesis in primary human macrophages stimulated with tenascin-C or its domains; assay type: cell-based
# Experimental: Human monocytes were isolated from peripheral blood (London Blood Bank) and macrophages were derived from monocytes after differentiation for 4 days with 100 ng/ml of M-CSF as previously described (Foxwell (1998)).
# (§3) Immediately after isolation, RA membrane cells and macrophages were cultured at 1×10^5 cells/well in RPMI 1640 containing 10% (v/v) FBS and 100 U/ml (Units/ml) penicillin/streptomycin in 96-well tissue culture plates for 24 hours before stimulation. Synovial fibroblasts (used only at either passage number 2 or 3) were cultured at 1×10^4 cells/well in DMEM containing 10% (v/v) FBS and 100 U/ml penicillin/streptomycin in 96-well tissue culture plates for 24 hours before stimulation.
# (§4) Cells were incubated for 24 hours at 37° C. with the indicated doses of tenascin-C and recombinant tenascin-C fragments (1.0 μM-1.0 nM). Cells were also stimulated where indicated with LPS (1 ng/ml for human macrophages, 10 ng/ml for human fibroblasts, RA membrane cells and HEKs, 100 ng/ml for MEFS and BMDMs and 10 ng/ml for HEKS), PAM3 (10 ng/ml for human macrophages, human fibroblasts, and HEKs, 100 ng/ml for MEFs and BMDMs), murine IL-1 (5 ng/ml for MEFS) and murine TNF-α (100 ng/ml for MEFS). Unless specifically stated otherwise rough LPS was used for in vitro studies.
# (§5) Where stated, cells were pre-incubated with 10 μg/ml anti-CD14 antibody, 10 μg/ml IL1 receptor antagonist, 10 μg/ml anti-TLR2 antibody, 25 μg/ml anti-TLR4 antibody, 10 or 25 μg/ml isotype control antibody, 25 μg/ml polymyxin B, or 1 μg/ml msbB LPS, for 30 minutes at 37° C. before stimulation. Where stated, recombinant tenascin-C and FBG, and LPS were boiled for 15 minutes before addition to cells
# (§6) Supernatants were subsequently examined for the presence of the cytokines TNF-α, IL-6, and IL-8 by enzyme-linked immunosorbent assay (ELISA) according to the manufacturer's instructions. Absorbance was read on a spectrophotometric ELISA plate reader (Labsystems Multiscan Biochromic, Vantaa, Finland) and analyzed using the Ascent software program (Thermo Labsystems, Altrincham, UK).
# [3] = system: knee joint of wild type mice; experiment: Intra-articular injection of FBG into the knee joint of wild type mice; assay type: in vivo
# Experimental: as §1, §2
# Coronal tissue sections (4 μm) were cut at 7 depths throughout the joint; 80 μm apart and stained with hematoxylin and eosin or Safranin-O to assess joint pathology.
# Inflammation (the influx of inflammatory cells into synovium (infiltrate) and the joint cavity (exudates), was graded using an arbitrary scale from 0 (no inflammation) to 3 (severe inflammation). Chondrocyte death was determined as the percentage of cartilage area containing empty lacunae in relation to the total area. Cartilage surface erosion was determined as the amount of cartilage lost in relation to the total cartilage area. Bone destruction was determined in 10 different areas of the total knee joint section. Destruction was graded on a scale of 0 (no damage) to 3 (complete loss of bone structure). Histological analysis was performed by an investigator who was blinded to the experimental groups. The mean score for each animal in an experimental group was calculated by averaging the histopathologic scores in at least 5 section depths per joint.
# RA synovial fibroblasts = experiment: Cytokine synthesis in RA synovial fibroblasts stimulated with tenascin-C, FBG or LPS; assay type: cell-based, human; conditions: 24 h; LPS 10 ng/ml
# From the text: (§7) RA membrane cells (representing a mixed population of all synovial cell types) were isolated from synovial membranes obtained from patients undergoing joint replacement surgery as previously described (Brennan (1989)). RA synovial fibroblasts were isolated from the mixed population of RA membrane cells as previously described (Brennan (1989)). The study was approved by the local Trust ethics committee (Riverside NHS Research Committee), and waste tissue (synovium after joint replacement surgery) was obtained only after receiving signed informed consent from the patient and anonymyzing the tissue to protect patient identity.
# as §3, §4, §5, §6
# MyD88 = experiment: FBG induction of IL-6 in RA synovial fibroblasts infected with adenovirus expressing dominant negative MyD88; assay type: cell-based, human; conditions: FBG 1 μM, 24 h; GFP control virus without effect
# From the text: Recombinant, replication-deficient adenoviral vectors encoding wild type MyD88 (AdMyD88 wt), dominant-negative forms of MyD88 (AdMyD88dn) and the GFP control (AdGFP) were constructed in-house. A description of the synthesis of these viruses is in Andreakos (2004). All viruses used in this study are E1/E3 deleted, belong to the Ad5 serotype. Viruses were propagated in 293 human embryonic kidney cells, purified by ultracentrifugation through two cesium chloride gradients, and viral titers determined by plaque assay as previously described (Sacre (2007)).
# For adenoviral gene transfer experiments, human RA synovial fibroblasts were incubated with adenoviral vectors at a multiplicity of infection of 100, washed after 2 hours, cultured in complete medium for 24 hours, then stimulated for 24 hours, after which time supernatants were collected.
# as §6
# [4] = system: RA synovial membrane cells; experiment: Cytokine synthesis in RA synovial membrane cells stimulated with FBG; assay type: cell-based, human; conditions: FBG 1.0-0.01 μM, 24 h, over spontaneous production
# From the text: as §7
# Immediately after isolation, RA membrane cells and macrophages were cultured at 1×10^5 cells/well in RPMI 1640 containing 10% (v/v) FBS and 100 U/ml (Units/ml) penicillin/streptomycin in 96-well tissue culture plates for 24 hours before stimulation. […]
# as §6
molecule,measurement,setting,value
B1,joint inflammation in TLR2 null mice,[1],able to induce
same,"TNF-α, IL-6 and IL-8 synthesis in human macrophages","[2]; 1.0 μM tenascin-C domains, 24 h",stimulated
same,cytokine stimulation: heat sensitivity and effect of polymyxin B,"[2]; boiled 15 minutes, 25 μg/ml polymyxin B pre-incubation, human macrophages and synovial fibroblasts",heat sensitive and unaffected by polymyxin B
same,joint histology,[3]; 100 ng FBG intra-articular,No inflammation or proteoglycan loss
same,joint histology,"[3]; 1 μg FBG intra-articular, 3 days","inflammatory cell infiltration (FIG. 6f), mild synovitis, pannus formation (FIG. 6g) and proteoglycan loss (FIG. 6h) was observed"
same,histological quantification: cartilage surface erosion and bone damage,"[3]; 1 μg FBG, 3 days (FIG. 6i)",modest amount
same,histological quantification: cellular infiltrate and exudate and chondrocyte death,"[3]; 1 μg FBG, 3 days (FIG. 6i)",high levels
same,joint histology,[3]; 3 μg FBG intra-articular,A similar response
same,joint inflammation,"[3]; intra-articular 100 ng, 1 or 3 μg",transient and dose dependent stimulation of joint inflammation
same,IL-6 synthesis in RA synovial fibroblasts,RA synovial fibroblasts,stimulated
same,IL-8 synthesis in RA synovial fibroblasts,RA synovial fibroblasts,did not induce
same,induction of IL-6 in synovial fibroblasts expressing dominant negative MyD88,MyD88,abolished
same,"synthesis of IL-6, IL-8 and TNF-α in RA synovial membranes",[4],further enhanced
